Experimental data published in PMC8498651 (Cell Reports, 2021).

B1: 2H04, anti-SARS-CoV-2 mAb (IgG) (antibody, V domains shown)
VH: EVQLQQSGAELVKPGASVKMSCKASGYTFTSYWITWVKQRPGQGLEWIGDIYPGSGSTKYNEKFRSEATLTVDTSSTTAYMQLSSLTSEDSAVYYCARWDFYGSRTFDYWGQGTTLTVSS
VL: DIVLTQSPAILSVSPGERVSFSCRASQNIGTIIHWYQQRTNGSPRLLIKYASESVSGIPSRFSGSGSGTDFTLSINSVESEDIADYYCQQSSSWPLTFGAGTKLEL
B2: 2B04, anti-SARS-CoV-2 mAb (IgG) (antibody, V domains shown)
VH: QVQLKQSGPGLVAPSQSLSITCTVSGFSLINYAISWVRQPPGKGLEWLGVIWTGGGTNYNSALKSRLSISKDNSKSQVFLKMNSLQTDDTARYYCARKDYYGRYYGMDYWGQGTSVTVS
VL: QAVVTQESALTTSPGETVTLTCRSSTGAVTTSNYANWVQEKPDHLFTGLIGGTNNRAPGVPARFSGSLIGDKAALTITGAQTEDEAIYFCALWYNNHWVFGGGTKLTVL

Key:
[1] = biological target: Recombinant SARS-CoV-2 RBD protein (E. coli) (SARS-CoV-2, UniProt P0DTC2); test: BLI
[2] = biological target: SARS-CoV RBD (SARS-CoV, strain , UniProt P59594); test: BLI

| Binder | Kd [1] [nM] | half-life of dissociation [1] [min] | binding result [2] |
| --- | --- | --- | --- |
| B1 | 40.1 | 1.27 |  |
| B2 | 1.05 | 23.7 | no binding |
